Source: patent WO2013157102A1 (dated 2013)

B1: humanized antibody 2 (antibody, V domains shown)
VH: EVQLLESGGGLVQPGGSLRLSCAASGFTFSNYGMSWVRQAPGKGLEWVSTISNSGRYTYFPDSVKGRFTISRDNSKNTLYLQMNSLRAEDTAVYYCAKHLDYANYDAMDYWGQGTLVTVSS
VL: DIVMTQTPLSSPVTLGQPASISCRASKSVTTSDFSYMHWLQQRPGQPPRLLIYLASNLESGVPDRFSGSGAGTDFTLKISRVEAEDVGVYYCQHSREFPWTFGQGTKVEIK
notes: Detected with anti-human IgG; also called VH-4 combined with VL-5; mucin subtype 5AC-specific humanized antibody
B2: humanized antibody 9 (antibody, V domains shown)
VH: QVQLQESGPGLVRPSQSLKLTCTVSGSTFSNYGMSWVRQTPEKRLEWIGTISNSGRYTYFPDSVKGRVTMLVDTSKNQFSLQMSSVTAADTAVYYCARHLDYANYDAMDYWGQGSLVTVSS
VL: DIVMTQTPLSSPVTLGQPASISCRASKSVTTSDFSYMHWLQQRPGQPPRLLIYLASNLESGVPDRFSGSGAGTDFTLKISRVEAEDVGVYYCQHSREFPWTFGQGTKVEIK
notes: Detected with anti-human IgG; also called VH-3 combined with VL-5; mucin subtype 5AC-specific humanized antibody
B3: humanized antibody 4 (antibody, V domains shown)
VH: EVQLLESGGGLVQPGGSLRLSCAASGFTFSNYGMSWVRQAPGKGLEWVSTISNSGRYTYFPDSVKGRFTISRDNSKNTLYLQMNSLRAEDTAVYYCAKHLDYANYDAMDYWGQGTLVTVSS
VL: DIQMTQSPSSLAVSLGDRVTITCRASKSVTTSDFSYMHWYQQKPGLAPKLLIYLASNLESGVPSRFSGSGSGTDFTFTISSLQPEDIATYYCQHSREFPWTFGQGTKVEVK
notes: also called VH-4 combined with VL-3; mucin subtype 5AC-specific humanized antibody
B4: humanized antibody 6 (antibody, V domains shown)
VH: EVQLVESGGGLVKPGGSLRLSCAASGFTFSNYGMSWVRQAPGKGLEWVSTISNSGRYTYFPDSVKGRFTISRDNAKNSLYLQMNSLRAEDTAVYYCARHLDYANYDAMDYWGQGTLVTVSS
VL: DIVMTQTPLSSPVTLGQPASISCRASKSVTTSDFSYMHWLQQRPGQPPRLLIYLASNLESGVPDRFSGSGAGTDFTLKISRVEAEDVGVYYCQHSREFPWTFGQGTKVEIK
notes: Detected with anti-human IgG; also called VH-5 combined with VL-5; mucin subtype 5AC-specific humanized antibody
B5: humanized antibody 7 (antibody, V domains shown)
VH: EVQLVESGGGVVRPGGSLRLSCAASGFTFDNYGMSWVRQAPGKGLEWVSTISNSGRYTYFPDSVKGRFTISRDNAKNSLYLQMNSLRAEDTALYHCARHLDYANYDAMDYWGQGTLVTVSS
VL: DIVMTQTPLSSPVTLGQPASISCRASKSVTTSDFSYMHWLQQRPGQPPRLLIYLASNLESGVPDRFSGSGAGTDFTLKISRVEAEDVGVYYCQHSREFPWTFGQGTKVEIK
notes: Detected with anti-human IgG; also called VH-6 combined with VL-5; mucin subtype 5AC-specific humanized antibody
B6: humanized antibody 3 (antibody, V domains shown)
VH: EVQLLESGGGLVQPGGSLRLSCAASGFTFSNYGMSWVRQAPGKGLEWVSTISNSGRYTYFPDSVKGRFTISRDNSKNTLYLQMNSLRAEDTAVYYCAKHLDYANYDAMDYWGQGTLVTVSS
VL: DIQMTQSPSTLAVSLGDRVTITCRASKSVTTSDFSYMHWYQQKPGKAPKLLMYLASNLESGVPSRFIGSGSGTEFTLTISSLQPDDFATYYCQHSREFPWTFGQGTKVEVK
notes: Detected with anti-human IgG; also called VH-4 combined with VL-2; mucin subtype 5AC-specific humanized antibody
B7: humanized antibody 5 (antibody, V domains shown)
VH: EVQLLESGGGLVQPGGSLRLSCAASGFTFSNYGMSWVRQAPGKGLEWVSTISNSGRYTYFPDSVKGRFTISRDNSKNTLYLQMNSLRAEDTAVYYCAKHLDYANYDAMDYWGQGTLVTVSS
VL: DIQMTQSPSSLAVSLGDRVTITCRASKSVTTSDFSYMHWYQQTPGKAPKLLIYLASNLESGVPSRFSGSGSGTDYTFTISSLQPEDIATYYCQHSREFPWTFGQGTKLQIT
notes: Detected with anti-human IgG; also called VH-4 combined with VL-4; mucin subtype 5AC-specific humanized antibody
B8: humanized antibody 10 (antibody, V domains shown)
VH: EVQLLESGGGLVQPGGSLRLSCAASGFTFSNYGMSWVRQAPGKGLEWVSTISNSGRYTYFPDSVKGRFTISRDNSKNTLYLQMNSLRAEDTAVYYCAKHLDYANYDAMDYWGQGTLVTVSS
VL: DIVMTQTPLSLSVTPGQPASISCRASKSVTTSDFSYMHWYLQKPGQPPQLLIYLASNLESGVPDRFSGSGSGTDFTLKISRVEAEDVGVYYCQHSREFPWTFGQGTKVEIK
notes: Detected with anti-human IgG; also called VH-4 combined with VL-7; mucin subtype 5AC-specific humanized antibody
B9: humanized antibody 1 (antibody, V domains shown)
VH: QVQLVESGGGVVQPGRSLRLSCSSSGFIFSNYGMSWVRQAPEKRLEWVATISNSGRYTYFPDSVKGRFTISRDNSKNTLFLQMDSLRPEDTGVYFCARHLDYANYDAMDYWGQGTPVTVSS
VL: DIVMTQSPNSLAVSLGERATINCRASKSVTTSDFSYMHWYQQKPGQPPKLLIYLASNLESGVPDRFSGSGSGTDFTLTISSLQAEDVAVYYCQHSREFPWTFGQGTKLEIK
notes: Expressed transiently in HEK293 cells and detected with anti-human IgG; also called VH-1 combined with VL-1; mucin subtype 5AC-specific humanized antibody
B10: mucin subtype 5AC-specific mouse antibody (antibody, V domains shown)
VH: EVKLVESGGVLVKSGGSLKLSCAVSGFTFSNYGMSWVRQTPEKRLEWVATISNSGRYTYFPDSVKGRFAISRDNAKNNLYLQMSSLRSADTALYYCTRHLDYANYDAMDYWGQGTSVTVSS
VL: DIVLTQSPASLAVSLGQRATISCRASKSVTTSDFSYMHWYQQKPGQPPKLLLYLASNLESGVPDRFSGSGSGTDFTLNIHPVEEEDAATYYCQHSREFPWTFGGGTKLEIK
notes: Detected with anti-mouse IgG

Target: T1, mucin subtype 5AC expressed on BxPC3 cells (human, UniProt P98088 28-5654)
T1 construct: whole, on cells; also called mucin 5AC; MUC5AC
Test: flow cytometry on BxPC3 cells expressing mucin subtype 5AC, 20 ug/mL antibody, Alexa Fluor 488 anti-human IgG

Binding result, binds:
B1, B2, B3, B4, B5, B6, B7, B8, B9

Target: T1, mucin subtype 5AC expressed on BxPC3 …
Test: flow cytometry on BxPC3 cells expressing mucin subtype 5AC, 20 ug/mL antibody, Alexa Fluor 488 anti-mouse IgG; mouse antibody is the positive reference

Binding result, binds:
B10
